# From the RNAGym collection of RNA variant scans (doi:10.1093/molbev/msab373)
# B1: Azoarcus group I ribozyme (parent)
# chain: GUGCCUUGCGCCGGGAAACCACGCAAGGGAUGGUGUCAAAUUCGGCGAAACCUAAGCGCCCGCCCGGGCGUAUGGCAACGCCGAGCCAAGCUUCGGCGCCUGCGCCGAUGAAGGUGUAGAGACUAGACGGCACCCACCUAAGGCAAACGCUAUGGUGAAGGCAUAGUCCAGGGAGUGGCGAAAGUCACACAAACCGG
# Variants of: B1
# Test: reverse-splicing fitness (ratio to wild type); higher = more active; in vitro selection; Mg2+ level not given
# In short: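 An in vitro group I ribozyme library with randomized positions was T7-transcribed and gel-purified. In triplicate, 10 pmol RNA in EPPS pH 7.5 was reacted with 50 pmoles of a 30-nt RNA substrate for 1 h at 37 °C across several added MgCl2 levels (1–48 mM), then stopped with EDTA. Products were reverse transcribed from a substrate-complementary primer, PCR-amplified and sequenced (HiSeq 4000). Fitness is a variant's read proportion after selection over that before, normalised to wild type.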
row,Variant,reverse-splicing fitness
1,C82G A120G A145U C150A C169A U176G,0.00465
2,C82G A120G A145U C150A C169A U176A,0.014
3,C82G A120G A145U C150A C169A U176C,0.0141
4,C82G A120C C150A C169U U176G,0.00663
5,C82G A120C C150A C169U U176C,0.0182
6,C82G A120C C150A C169U U176A,0.0156
7,C82G A120C A145G C150U C169G U176A,0.0139
8,C82G A120C A145G C150U C169G U176G,0.00538
9,C82G A120C A145G C150U C169G U176C,0.0205
10,C82G A120C C150A C169G U176C,0.0222
11,C82G A120C C150A C169G U176G,0.00501
12,C82G A120C C150A C169G U176A,0.0187
13,C82G A120C C150U C169U U176C,0.0162
14,C82G A120C C150U C169U U176G,0.00634
15,C82G A120C C150U C169U U176A,0.0159
16,C82G A120C C150A U176A,0.0182
17,C82G A120C C150A U176G,0.0105
18,C82G A120C C150A U176C,0.0287
19,C82G A120G A145G C150U C169U,0.0236
20,C82G A120G A145G C150U C169G,0.04
21,C82G A120G A145G C150U C169A,0.0266

row,Variant,reverse-splicing fitness
1,C82G A120G A145G C169U,0.0249
2,C82G A120G A145G C169G,0.0507
3,C82G A120G A145G C169A,0.0319
4,C82G A120G A145G C150G C169U U176G,0.00717
5,C82G A120G A145G C150G C169U U176C,0.0139
6,C82G A120G A145G C150G C169U U176A,0.0131
7,C82G A120G A145U C150A C169G U176A,0.0132
8,C82G A120G A145U C150A C169G U176C,0.0157
9,C82G A120G A145U C150A C169G U176G,0.00401
10,C82G A120C A145G C169U U176G,0.00453
11,C82G A120C A145G C169U U176C,0.0174
12,C82G A120C A145G C169U U176A,0.017
13,C82G A120G A145G C150U C169A U176A,0.0171
14,C82G A120G A145G C150U C169A U176C,0.0181
15,C82G A120G A145G C150U C169A U176G,0.00521
16,C82G A120C A145U C150A U176A,0.0188
17,C82G A120C A145U C150A U176G,0.00735
18,C82G A120C A145U C150A U176C,0.0216
19,C82G A120C A145U C150G U176G,0.00444
20,C82G A120C A145U C150G U176A,0.00942
21,C82G A120C A145U C150G U176C,0.0164

row,Variant,reverse-splicing fitness
1,C82G A120G A145U C150G U176C,0.0103
2,C82G A120G A145U C150G U176A,0.00666
3,C82G A120G A145U C150G U176G,0.00404
4,C82G A120G A145U C150U C169A U176C,0.0133
5,C82G A120G A145U C150U C169A U176G,0.00467
6,C82G A120G A145U C150U C169A U176A,0.0161
7,C82G A120C A145U C150U C169A U176A,0.015
8,C82G A120C A145U C150U C169A U176G,0.00538
9,C82G A120C A145U C150U C169A U176C,0.00984
10,C82G A120G A145G C150G U176A,0.00691
11,C82G A120G A145G C150G U176G,0.00614
12,C82G A120G A145G C150G U176C,0.011
13,C82G A120C A145U C169G,0.0068
14,C82G A120C A145U C169A,0.00673
15,C82G A120C A145U C169U,0.0247
16,C82G A120C C150G C169A U176C,0.0106
17,C82G A120C C150G C169A U176A,0.01
18,C82G A120C C150G C169A U176G,0.0082
19,C82G A120C C169A,0.00902
20,C82G A120C C169U,0.0232
21,C82G A120C C169G,0.00817

row,Variant,reverse-splicing fitness
1,C82G A120G A145G C150A U176G,0.00757
2,C82G A120G A145G C150A U176C,0.0209
3,C82G A120G A145G C150A U176A,0.011
4,C82G A120C A145G U176A,0.0722
5,C82G A120C A145G U176G,0.0158
6,C82G A120C A145G U176C,0.103
7,C82G A120C C150G U176G,0.00413
8,C82G A120C C150G U176A,0.00858
9,C82G A120C C150G U176C,0.0138
10,C82G A120C C150U C169A,0.0121
11,C82G A120C C150U C169U,0.0173
12,C82G A120C C150U C169G,0.00822
13,C82G A120C A145G C150G U176G,0.00687
14,C82G A120C A145G C150G U176C,0.0168
15,C82G A120C A145G C150G U176A,0.0102
16,C82G A120G A145U C150U C169G,0.0343
17,C82G A120G A145U C150U C169A,0.0199
18,C82G A120G A145U C150U C169U,0.0183
19,C82G A120G A145G C150A C169G U176G,0.00507
20,C82G A120G A145G C150A C169G U176A,0.0188
